{"source": "patent US20260008830A1", "test_in_all_cases": "cell-based or functional assay", "key": {"[1]": {"molecular_target": "IL-22 receptors R1 and R2 on HEK-Blue IL-22 reporter cells (UniProt Q8N6P7)", "sequence (Q8N6P7 16-574 limits assumed)": "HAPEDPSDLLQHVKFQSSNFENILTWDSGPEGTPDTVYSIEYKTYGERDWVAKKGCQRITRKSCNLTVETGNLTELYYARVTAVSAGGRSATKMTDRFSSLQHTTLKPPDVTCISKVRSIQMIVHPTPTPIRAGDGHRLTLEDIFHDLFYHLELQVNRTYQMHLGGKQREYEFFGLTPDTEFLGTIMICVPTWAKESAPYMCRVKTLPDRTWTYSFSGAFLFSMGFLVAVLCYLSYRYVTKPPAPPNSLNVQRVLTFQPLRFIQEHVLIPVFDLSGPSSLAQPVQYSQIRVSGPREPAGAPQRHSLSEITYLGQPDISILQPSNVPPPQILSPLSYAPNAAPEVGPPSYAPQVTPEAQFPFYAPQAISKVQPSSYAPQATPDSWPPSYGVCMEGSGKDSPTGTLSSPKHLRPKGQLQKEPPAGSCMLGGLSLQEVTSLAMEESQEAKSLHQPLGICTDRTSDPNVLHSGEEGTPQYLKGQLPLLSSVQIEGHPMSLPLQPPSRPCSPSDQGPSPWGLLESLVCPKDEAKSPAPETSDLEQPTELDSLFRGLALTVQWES"}, "[2]": {"molecular_target": "IL-10 receptors R1 and R2 on HEK-Blue IL-10 reporter cells (UniProt Q13651)"}, "[3]": {"molecular_target": "T1, IL-10 receptors R1 and R2 on HEK-Blue IL-10 reporter cells (UniProt Q13651)", "T1 sequence (looked up) 1": "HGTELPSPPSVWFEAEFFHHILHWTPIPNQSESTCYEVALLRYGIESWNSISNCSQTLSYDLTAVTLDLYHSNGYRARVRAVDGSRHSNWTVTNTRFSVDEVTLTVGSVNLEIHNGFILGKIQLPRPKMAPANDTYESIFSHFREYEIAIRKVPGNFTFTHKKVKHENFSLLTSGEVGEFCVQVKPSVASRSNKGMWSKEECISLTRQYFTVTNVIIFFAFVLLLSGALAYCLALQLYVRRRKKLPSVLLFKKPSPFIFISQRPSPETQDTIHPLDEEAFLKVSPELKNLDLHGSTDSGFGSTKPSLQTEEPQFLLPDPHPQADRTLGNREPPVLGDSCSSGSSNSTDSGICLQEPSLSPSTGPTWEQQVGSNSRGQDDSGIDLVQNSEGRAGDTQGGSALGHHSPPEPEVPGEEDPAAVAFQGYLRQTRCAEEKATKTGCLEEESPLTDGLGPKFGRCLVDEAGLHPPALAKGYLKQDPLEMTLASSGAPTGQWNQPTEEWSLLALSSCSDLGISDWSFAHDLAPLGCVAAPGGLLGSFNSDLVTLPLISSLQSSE", "T1 sequence (looked up) 2": "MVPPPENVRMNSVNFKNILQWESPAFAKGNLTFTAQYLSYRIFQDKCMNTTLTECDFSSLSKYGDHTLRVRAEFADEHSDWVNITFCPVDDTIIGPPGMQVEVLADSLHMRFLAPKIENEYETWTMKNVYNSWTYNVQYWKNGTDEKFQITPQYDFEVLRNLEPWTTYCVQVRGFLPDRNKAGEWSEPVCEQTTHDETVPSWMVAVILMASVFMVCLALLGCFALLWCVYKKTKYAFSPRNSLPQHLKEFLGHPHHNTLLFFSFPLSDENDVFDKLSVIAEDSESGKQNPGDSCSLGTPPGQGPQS", "remark": "listed apart in the source"}, "[4]": {"molecular_target": "T2, IFN-gamma receptor on HEK-Dual cells (Human IFN-γ SEAP/Luciferase Reporter Cells, hkd-ifng)", "T2 sequence (P15260 whole entry, looked up)": "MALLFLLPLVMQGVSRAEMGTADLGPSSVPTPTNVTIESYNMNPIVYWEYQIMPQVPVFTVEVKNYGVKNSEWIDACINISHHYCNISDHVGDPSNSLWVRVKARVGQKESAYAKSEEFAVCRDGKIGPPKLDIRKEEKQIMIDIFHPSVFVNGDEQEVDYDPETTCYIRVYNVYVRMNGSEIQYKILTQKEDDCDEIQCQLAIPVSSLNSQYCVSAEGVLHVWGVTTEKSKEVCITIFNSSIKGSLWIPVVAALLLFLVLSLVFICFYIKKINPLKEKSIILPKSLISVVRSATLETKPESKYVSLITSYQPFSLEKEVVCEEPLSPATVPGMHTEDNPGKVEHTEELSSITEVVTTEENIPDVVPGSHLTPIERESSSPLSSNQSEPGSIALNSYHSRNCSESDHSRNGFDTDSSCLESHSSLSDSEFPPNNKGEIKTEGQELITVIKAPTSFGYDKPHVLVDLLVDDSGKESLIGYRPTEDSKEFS", "T2 sequence (P38484 whole entry, looked up)": "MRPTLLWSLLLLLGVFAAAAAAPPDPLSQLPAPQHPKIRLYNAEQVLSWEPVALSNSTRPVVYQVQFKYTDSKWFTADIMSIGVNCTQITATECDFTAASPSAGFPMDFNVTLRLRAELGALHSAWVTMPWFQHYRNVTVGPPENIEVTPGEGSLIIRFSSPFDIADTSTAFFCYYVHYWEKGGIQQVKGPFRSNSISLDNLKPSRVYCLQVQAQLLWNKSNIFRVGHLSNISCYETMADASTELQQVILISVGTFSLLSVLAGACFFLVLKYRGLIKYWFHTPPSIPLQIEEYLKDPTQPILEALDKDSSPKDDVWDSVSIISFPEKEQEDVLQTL"}}}
{"substance": "WT22 (IL-22 WT used as reference for the interface mutants) (from UniProt Q9GZX6 34-179) (ligand)", "values": [{"measurement": "app KD (HEK-Blue IL-22 reporter)", "setting": "[1]", "result": 0.128, "unit": "nM"}]}
{"substance": "hIL-10r (commercial recombinant human IL-10, #200-10, Peprotech) (from UniProt P22301 19-178) (ligand)", "values": [{"measurement": "Apparent Kd (M) average (HEK-Blue IL-10 SEAP reporter, absorbance 630 nm, saturation binding fit)", "setting": "[2]", "result": "4.61e-10", "unit": "M"}, {"measurement": "Fold change-apparentKD (against IL-10 ORF)", "setting": "[2]", "result": 0.43, "unit": "fold"}]}
{"substance": "IL-10 ORF (WT human IL-10 expressed and secreted by M. pneumoniae) (from UniProt P22301 19-178) (ligand)", "values": [{"measurement": "Apparent Kd (M) average (HEK-Blue IL-10 SEAP reporter, absorbance 630 nm, saturation binding fit)", "setting": "[3]", "result": "1.98e-10", "unit": "M"}, {"measurement": "Fold change-apparentKD (against IL-10 ORF)", "setting": "[3]", "result": 1, "unit": "fold"}]}
{"substance": "IFNg WT (crystallised version of IFNg of PDB 6e3k) (from UniProt P01579 24-147) (ligand)", "values": [{"measurement": "EC50 (HEK Dual cells responding to IFNγ)", "setting": "[4]", "result": 0.0866, "unit": "nM"}]}
